± gives the uncertainty stated by the source.
B1: Myocardin, residues 363 to 406; numbered along this chain, Q8IZQ8 (parent)
chain: KPGPLPPNLDDLKVSELRQQLRIRGLPVSGTKTALMDRLRPFQD

Variants of: B1
Experiment: abundance fitness (aPCA) (normalised: wild type 0, dead -1); higher = more abundant; growth selection in yeast, the domain comes from the species named
Settings: Homo sapiens

KPGPLPPNLDDLKVSELRQQLRFRGLPVSGTKTALMDRLRPFQD [I23F] and YPGPLPPNLDDLKVSELRQQLRIRGLPVSGTKTALMDRLRPFQD [K1Y] are within error of each other in abundance fitness: -0.378 ± 0.26 for the first, -0.608 ± 0.17 for the second.

First: KPGPLPPNLDDLKVSELRQQLRIRGLPVSGTKTALMDWLRPFQD [R38W]
Second: KPGPLPPNLDDLKVSELRQQLRIRGLPVSGTKTALMDRLRPFQN [D44N]
The abundance fitness of the first is lower: -1.02 ± 0.13 for the first, -0.236 ± 0.23 for the second.

First: KPGPLPPNLDDLKVSELRQQLRIRGLPVMGTKTALMDRLRPFQD [S29M]
Second: KPGPLPPNLDDLKVSELRQQQRIRGLPVSGTKTALMDRLRPFQD [L21Q]
The abundance fitness of the first is higher: -0.003 ± 0.14 for the first, -0.517 ± 0.091 for the second.

Compared with KPGPLPPNLDDLKVSELRQQLRIRDLPVSGTKTALMDRLRPFQD [G25D], KPGPLPPNLDDLKVSELRQQLRIRGLPVSGTQTALMDRLRPFQD [K32Q] is lower in abundance fitness: -0.246 ± 0.16 for the first, -0.58 ± 0.11 for the second.

Going from KPWPLPPNLDDLKVSELRQQLRIRGLPVSGTKTALMDRLRPFQD [G3W] to KPGPLPPNLDDLKVSELRQQLRIRGLPVSGTKTALMDRRRPFQD [L39R], the abundance fitness falls from -0.607 ± 0.083 to -0.776 ± 0.081.

Compared with KPGPLPPNLDYLKVSELRQQLRIRGLPVSGTKTALMDRLRPFQD [D11Y], KPGPLPPNLCDLKVSELRQQLRIRGLPVSGTKTALMDRLRPFQD [D10C] is higher in abundance fitness: -0.183 ± 0.14 for the first, 0.245 ± 0.099 for the second.

Compared with KPGPLPPNLDDLKVSELRQQLRIEGLPVSGTKTALMDRLRPFQD [R24E], KPGPWPPNLDDLKVSELRQQLRIRGLPVSGTKTALMDRLRPFQD [L5W] is lower in abundance fitness: -0.56 ± 0.14 for the first, -0.984 ± 0.13 for the second.

First: KPGPLPPNLDDLKVSELRQQLRIRGLPVSGTKTALIDRLRPFQD [M36I]
Second: KPGPLPPNLDDLKVSELRQQLRIRGLPRSGTKTALMDRLRPFQD [V28R]
The abundance fitness of the first is higher: -0.125 ± 0.16 for the first, -0.671 ± 0.075 for the second.

Going from KPGPLPPNLDDLKWSELRQQLRIRGLPVSGTKTALMDRLRPFQD [V14W] to KPGPLPPNLDDLKVSELRQQLRIRGLPVSGTKTCLMDRLRPFQD [A34C], the abundance fitness rises from -1.02 ± 0.13 to -0.467 ± 0.1.

Compared with KPGPFPPNLDDLKVSELRQQLRIRGLPVSGTKTALMDRLRPFQD [L5F], KPGPLPPNLDDLKVSELRQQLRIRGLPVSGTKAALMDRLRPFQD [T33A] is higher in abundance fitness: -0.307 ± 0.16 for the first, 0.077 ± 0.064 for the second.

Compared with KPGPLPPNLDDLKVSELRYQLRIRGLPVSGTKTALMDRLRPFQD [Q19Y], KPGPLPPNLDDLKVSELRQQLRIRGLPVSGTKTALMDRARPFQD [L39A] is lower in abundance fitness: -0.124 ± 0.14 for the first, -0.641 ± 0.099 for the second.

First: KPGPLPPNLDDLKVSELRQQLRIRGLPVSGTKTALMDRLRPFQA [D44A]
Second: KPGPLPPNLDDLKVSELRQQLRIRGLPVPGTKTALMDRLRPFQD [S29P]
The abundance fitness of the first is higher: -0.086 ± 0.13 for the first, -0.605 ± 0.095 for the second.

Going from KPGPLPPNLDDLKVSELRQQLRIRGLPVSGTKTATMDRLRPFQD [L35T] to KPGPLPPNLDDLKVSELRQQLRIRGLPVSSTKTALMDRLRPFQD [G30S], the abundance fitness falls from -0.551 ± 0.097 to -0.779 ± 0.1.

Going from KPGPLPPNLDDLKVSELRQQLRIRGLPVSGAKTALMDRLRPFQD [T31A] to KPGPLPPNLDDLKVSELRQWLRIRGLPVSGTKTALMDRLRPFQD [Q20W], the abundance fitness falls from 0.078 ± 0.1 to -0.767 ± 0.095.

First: KPGPLPPNLDDLKVSELRQQLRIRGLPVSGTKTALMDRLRPFTD [Q43T]
Second: KPGKLPPNLDDLKVSELRQQLRIRGLPVSGTKTALMDRLRPFQD [P4K]
The abundance fitness of the first is lower: 0.1 ± 0.094 for the first, 0.371 ± 0.079 for the second.

Compared with KPGPEPPNLDDLKVSELRQQLRIRGLPVSGTKTALMDRLRPFQD [L5E], KPGPLPPNLDDLKVSELRQQLRIRGLPVSGTKTALMDELRPFQD [R38E] is lower in abundance fitness: -0.13 ± 0.11 for the first, -0.451 ± 0.086 for the second.

KPGPLPPNLDDLKMSELRQQLRIRGLPVSGTKTALMDRLRPFQD [V14M] and KPGPLPPNLDDLKVSELRQHLRIRGLPVSGTKTALMDRLRPFQD [Q20H] are within error of each other in abundance fitness: -0.116 ± 0.11 for the first, 0.073 ± 0.11 for the second.

KPGPLPPNLDDLKVSELRQQLRIRFLPVSGTKTALMDRLRPFQD [G25F] and KPGPLPPNLDKLKVSELRQQLRIRGLPVSGTKTALMDRLRPFQD [D11K] are within error of each other in abundance fitness: -0.175 ± 0.38 for the first, 0.083 ± 0.066 for the second.

KPGPLPPNLDDLKVSELRQQLRIRGLPVSGTKTALMDRLRPFQL [D44L] and KPGPLPPNLDDVKVSELRQQLRIRGLPVSGTKTALMDRLRPFQD [L12V] are within error of each other in abundance fitness: -0.494 ± 0.22 for the first, -0.497 ± 0.068 for the second.

KPGPLPPNLDDLKVSELRQQLRIRGLPVSGTKTALMDALRPFQD [R38A] and KPGPLPPNLDDLKVSELRQQLRIRGLPVSGTKTALMDSLRPFQD [R38S] are within error of each other in abundance fitness: -0.592 ± 0.13 for the first, -0.479 ± 0.082 for the second.

KPGPLPPNLDDLKVSELRQQLRIRGLPVSGTKTALMDRLMPFQD [R40M] and KPGPNPPNLDDLKVSELRQQLRIRGLPVSGTKTALMDRLRPFQD [L5N] are within error of each other in abundance fitness: -0.25 ± 0.1 for the first, -0.276 ± 0.32 for the second.

Going from KPGPLPPNLDDLKVSELRQQLRIMGLPVSGTKTALMDRLRPFQD [R24M] to KPGPLPPNLDDLKVSELRQQLRIRGLPVSRTKTALMDRLRPFQD [G30R], the abundance fitness falls from 0.092 ± 0.2 to -0.876 ± 0.12.

Compared with KPGPLPPNLDDLKVSELRQQLRIRGRPVSGTKTALMDRLRPFQD [L26R], KPGPLPPNLDDLKVSELKQQLRIRGLPVSGTKTALMDRLRPFQD [R18K] is higher in abundance fitness: -0.858 ± 0.083 for the first, 0.032 ± 0.1 for the second.

Going from KPGPLPPNLDDLKVSHLRQQLRIRGLPVSGTKTALMDRLRPFQD [E16H] to KPGPLPPNLDDLKVSELRQQLRIRGLPVSGTKTALMDRERPFQD [L39E], the abundance fitness rises from -0.983 ± 0.18 to -0.562 ± 0.1.

First: KPGPLPPNLDDLKVSELRQQLRIRGLPVSGTKTLLMDRLRPFQD [A34L]
Second: KPGPLPPNLDDLKVSELRQQLRIRGLPVSGTKTALMDRLTPFQD [R40T]
The abundance fitness of the first is lower: -0.721 ± 0.13 for the first, -0.12 ± 0.099 for the second.

KPGPLPPNLDDLKVSELRQQLRIRSLPVSGTKTALMDRLRPFQD [G25S] and KPGPLPPNLDDLKVSELRQQLRKRGLPVSGTKTALMDRLRPFQD [I23K] are within error of each other in abundance fitness: -0.318 ± 0.12 for the first, -0.153 ± 0.084 for the second.

Going from KPGPLPPNLDDLKVSELRQQLRIRGLPMSGTKTALMDRLRPFQD [V28M] to KPGPLPPNLDDLKVSELRQQLRIRGLPVSGTKTALMDHLRPFQD [R38H], the abundance fitness falls from 0.017 ± 0.18 to -1.2 ± 0.26.

First: KMGPLPPNLDDLKVSELRQQLRIRGLPVSGTKTALMDRLRPFQD [P2M]
Second: KPGPLPPNLDDLKVSELRQQLRIRGLPVSGTKTAGMDRLRPFQD [L35G]
The abundance fitness of the first is higher: 0.387 ± 0.096 for the first, -0.489 ± 0.068 for the second.

KPGPLPPNLDDLKVSELRQQLRIRGLPVHGTKTALMDRLRPFQD [S29H] and KPGVLPPNLDDLKVSELRQQLRIRGLPVSGTKTALMDRLRPFQD [P4V] are within error of each other in abundance fitness: -0.108 ± 0.16 for the first, 0.09 ± 0.07 for the second.

Source: the Human Domainome abundance scans (Beltran et al. 2025)
